In patent US20140086913A1 (Gilead, published 2014):

T1: human DDR2 stably expressed on HEK293 cells (human, UniProt Q16832 22-855)
T1 construct: whole, on cells; also called hDDR2
T1 sequence (looked up): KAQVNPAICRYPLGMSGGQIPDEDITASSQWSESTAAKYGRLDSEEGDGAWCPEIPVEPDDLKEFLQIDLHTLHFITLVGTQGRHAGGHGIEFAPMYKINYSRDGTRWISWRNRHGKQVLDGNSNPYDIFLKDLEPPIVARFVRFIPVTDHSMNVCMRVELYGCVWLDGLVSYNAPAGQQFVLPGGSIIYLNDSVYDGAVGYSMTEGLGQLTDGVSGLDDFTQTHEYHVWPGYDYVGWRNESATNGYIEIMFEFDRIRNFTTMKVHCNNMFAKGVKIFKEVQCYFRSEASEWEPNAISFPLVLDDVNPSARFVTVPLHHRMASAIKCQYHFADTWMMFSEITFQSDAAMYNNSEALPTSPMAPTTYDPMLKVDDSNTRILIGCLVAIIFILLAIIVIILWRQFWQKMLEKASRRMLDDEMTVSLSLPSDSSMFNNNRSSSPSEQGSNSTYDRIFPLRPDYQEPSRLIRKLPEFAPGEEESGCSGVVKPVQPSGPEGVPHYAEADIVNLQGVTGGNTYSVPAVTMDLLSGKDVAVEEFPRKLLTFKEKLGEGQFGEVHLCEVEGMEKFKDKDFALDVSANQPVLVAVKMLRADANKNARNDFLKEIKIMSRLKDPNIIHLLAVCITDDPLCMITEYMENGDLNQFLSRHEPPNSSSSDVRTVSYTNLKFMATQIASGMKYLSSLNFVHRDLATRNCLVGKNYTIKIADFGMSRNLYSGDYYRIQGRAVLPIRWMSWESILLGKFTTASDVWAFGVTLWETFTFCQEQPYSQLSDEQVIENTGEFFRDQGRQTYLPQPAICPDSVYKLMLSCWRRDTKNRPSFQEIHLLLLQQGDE

T2: mouse ECD-DDR1-Fc (mouse; human, UniProt Q03146 22-414)
T2 construct: also called mouse DDR1-ECD; wild-type mouse DDR1-ECD; not shown: human IgG1 Fc of the vector pFuse-hIgG1-Fc1 (Invivogen)
T2 sequence: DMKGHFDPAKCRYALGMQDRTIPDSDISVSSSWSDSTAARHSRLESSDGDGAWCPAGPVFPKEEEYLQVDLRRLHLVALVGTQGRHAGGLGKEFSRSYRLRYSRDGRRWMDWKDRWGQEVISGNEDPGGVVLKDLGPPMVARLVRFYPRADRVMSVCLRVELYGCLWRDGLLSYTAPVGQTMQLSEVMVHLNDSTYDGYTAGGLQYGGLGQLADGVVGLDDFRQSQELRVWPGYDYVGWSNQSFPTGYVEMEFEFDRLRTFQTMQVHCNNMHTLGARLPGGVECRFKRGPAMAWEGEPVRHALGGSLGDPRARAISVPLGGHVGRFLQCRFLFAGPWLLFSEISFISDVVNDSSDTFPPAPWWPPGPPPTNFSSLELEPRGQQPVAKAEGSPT

B1: AB2040 (antibody, V domains shown)
VH: EVMLVESGGGLVKPGGSLKLSCAASGFTFSNYAMSWVRQTPEKRLEWVAKTSSGDTYTYYPDSVKGRFTISRDNAKNTLYLQMTSLRSEDTAIYYCARQDYYGITPWFFDVWGAGTTVTVSS
VL: ENVLTQSPAIMSASPGEKVTMTCRASSSVSSIYLHWYQQKSGASPKLWIYSTSNLASGVPARFSGSGSGTSYSLTITSVEAEDAATYYCQQYSGYPLITFGAGTKLELKR
notes: mouse hybridoma mAb
B2: AB2073 (antibody, V domains shown)
VH: B1 VH
VL: B1 VL
notes: mouse hybridoma mAb
B3: AB2065 (antibody, V domains shown)
VH: B1 VH
VL: B1 VL
notes: mouse hybridoma mAb
B4: AB2054 (antibody, V domains shown)
VH: B1 VH
VL: B1 VL
notes: mouse hybridoma mAb
B5: AB2003 (antibody, V domains shown)
VH: DVHLQESGPDLVKPSQSLSLTCTVTDYSITSGYGWHWIRQFPGNKLEWMGYIHYGGSTKYNSSLKSRISITRDTSKNQFFLQLKSVTTDDTGTYYCATSGNYGFAYWGQGTLVTVSA
VL: DIVLTQSPTSLAVSLGQRATMSCRASESVDDYGTSFMHWYQQKPGQPPKLLIYRASNLESGIPARFSGSGSRADFTLSINPVEPDDVATYYCQQSNEDPFTFGSGTKLEIKR
notes: mouse hybridoma mAb
B6: AB2019 (antibody, V domains shown)
VH: QVQLKQSGPGLVQPSQSLSITCTVSGFSFTGYGIHWVRQSPGKGLEWLGVIWSGGITDYNAAFISRLSISMDSSKGQVFFKMNSLQANDTAIYYCARRSTTVVADYAMDYWGQGTSVTVSS
VL: SIVMTQTPKFLLVSAGDRVTITCKASQSVSNDVAWYQQKPGQSPKLLIYYASNRYTGVPDRFTGSGYGTDFTFTINTVQAEDLAVYFCQQDYTSPLTFGAGTKLELKR
notes: mouse hybridoma mAb
B7: AB2032 (antibody, V domains shown)
VH: B6 VH
VL: B6 VL
notes: mouse hybridoma mAb
B8: AB2034 (antibody, V domains shown)
VH: QVQLKESGPGLVAPSQSLSITCTVSGFSLTSYHIHWVRQPPGKGLEWLVVIWSDGSTTYNSALKSRLSISKDNSKSQVFLKMNSLQTDDTAIYYCARTGNFYAMDYWGQGTSVTVSS
VL: SIVMTQTPKFLLVSAGDRVTITCKASQSVSNDVVWYQQKPGQSPKLLIYYASSRYTGVPDRFTGSGYGTDFTFTISTVQAEDLAVYFCQQDYSSPYTFGGGTKLEIR
notes: mouse hybridoma mAb

Molecular target: DDR1 endogenously expressed on human cancer cell lines (T47D, HCT-116, A431) (human) (UniProt Q08345)
Experiment: flow cytometry, T47D cells

| MFI [MFI] | Binder |
| --- | --- |
| 2810 | B1 |
| 6050 | B2 |
| 4400 | B3 |
| 5930 | B4 |
| 6100 | B5 |
| 4950 | B6 |
| 6820 | B7 |
| 4370 | B8 |

Molecular target: human DDR1 (isoform B) stably expressed on HEK293 cells (human) (UniProt Q08345)
Experiment: flow cytometry, HEK293/hDDR1

Sequence of human DDR1 (isoform B) stably expressed on HEK293 cells (human) (Q08345 19-913): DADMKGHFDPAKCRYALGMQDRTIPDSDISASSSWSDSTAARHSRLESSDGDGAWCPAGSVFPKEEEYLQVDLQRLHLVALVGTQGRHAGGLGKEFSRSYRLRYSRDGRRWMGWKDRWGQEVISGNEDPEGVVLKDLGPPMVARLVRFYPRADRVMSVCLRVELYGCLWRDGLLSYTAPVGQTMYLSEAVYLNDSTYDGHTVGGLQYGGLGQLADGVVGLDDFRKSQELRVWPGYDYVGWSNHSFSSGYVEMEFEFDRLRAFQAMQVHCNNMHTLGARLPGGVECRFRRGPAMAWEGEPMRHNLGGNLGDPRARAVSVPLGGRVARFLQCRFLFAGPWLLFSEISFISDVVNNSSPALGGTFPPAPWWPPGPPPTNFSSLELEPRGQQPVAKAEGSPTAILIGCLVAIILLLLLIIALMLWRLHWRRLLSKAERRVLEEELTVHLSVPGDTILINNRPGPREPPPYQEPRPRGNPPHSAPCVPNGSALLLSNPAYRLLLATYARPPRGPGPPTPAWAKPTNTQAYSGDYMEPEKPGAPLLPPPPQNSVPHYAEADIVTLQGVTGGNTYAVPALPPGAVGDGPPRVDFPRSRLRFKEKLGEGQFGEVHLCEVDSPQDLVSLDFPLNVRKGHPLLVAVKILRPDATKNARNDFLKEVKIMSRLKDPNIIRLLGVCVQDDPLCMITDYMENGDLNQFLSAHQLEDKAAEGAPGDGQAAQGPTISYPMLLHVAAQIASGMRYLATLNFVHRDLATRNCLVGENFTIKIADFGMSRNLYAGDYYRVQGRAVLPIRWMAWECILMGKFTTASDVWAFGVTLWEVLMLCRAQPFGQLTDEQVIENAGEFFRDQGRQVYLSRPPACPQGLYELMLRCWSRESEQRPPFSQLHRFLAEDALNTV

| MFI [MFI] | Binder |
| --- | --- |
| 13700 | B1 |
| 16200 | B2 |
| 3560 | B3 |
| 15500 | B4 |
| 15000 | B5 |
| 12600 | B6 |
| 13700 | B7 |
| 11400 | B8 |

Molecular target: DDR1 with a ProLink Tag (PK) in engineered U20S cells (DiscoveRx), Q08345
Experiment: cell-based or functional assay

| Mean EC50, DDR1 Tyr513 phosphorylation assay (U20S) [nM] | Binder |
| --- | --- |
| 25.7 | B3 |
| 3 | B5 |
| 6.6 | B6 |
| 7.72 | B7 |
| 5.2 | B8 |

Molecular target: T1, human DDR2 stably expressed on HEK293 …
Experiment: flow cytometry, HEK293/hDDR2
Protocol: Additional monoclonal antibodies were obtained from individual hybridomas in Example 1 and were characterized for their properties.
Cells were cultured in DMEM with 10% FBS and 0.8 mg/mL hygromycin. When cells reached 60-80% confluence, they were centrifuged at 1,200 rpm for 5 minutes, suspended in FACS buffer (1×PBS, 1% BSA), and aliquoted into a 96-well plate at 1×10⁶ cells per well. The anti-DDR1 monoclonal antibodies or appropriate isotype controls at 2 μg per 1×10⁶ cells were added and incubated at 4° C. for 1 hr. The cells were washed twice with FACS buffer then stained with the anti-IgG-PE secondary antibody at 10 μL per well at 4° C. for 1 hr. The cells were washed again and measured for the MFI values or signals using flow cytometry (LSR Fortessa instrument, BD Biosciences). Background MFI signals from vector-only cells (i.e. no DDR1 or DDR2 expression) was subtracted from those of the cells treated with antibodies. Higher MFI values or signals indicated increased binding or specificity of the anti-DDR1 antibodies to the DDR1 on the cell surface.

| MFI [MFI] | Binder |
| --- | --- |
| 308 | B1 |
| 410 | B2 |
| 353 | B3 |
| 306 | B4 |
| 176 | B5 |
| 244 | B6 |
| 265 | B7 |
| 175 | B8 |

Molecular target: T3, human ECD-DDR1-His protein (human, UniProt Q08345 21-416)
T3 construct: also called huDDR1-ECD-His; DDR1ECD-6Xhis; not shown: His tag
Experiment: ELISA, coated antigen, apparent KD
Protocol: (§1) In this study, ELISA was used to determine the affinity of murine anti-DDR1 monoclonal antibodies to the extracellular domain (ECD) of either human or murine DDR1. A 96-well MaxiSorb ELISA plates (Nunc) were coated with 2 μg/mL of one of three purified recombinant tagged proteins: human ECD-DDR1-His protein, human ECD-DDR1-Fc, or mouse ECD-DDR1-Fc overnight at 4° C. The next day, the plates were blocked with 5% bovine serum albumin (BSA, Jackson Immunoresearch) prior to the addition of serially diluted anti-DDR1 monoclonal antibodies. Antibodies were incubated for 1 hr at room temperature. The binding of antibody to the antigen was detected by incubating samples with anti-mouse IgG-HRP (horse radish peroxidase) secondary detection antibody (Jackson Immunoresearch) for 1 hr. After a washing step, 3,3′,5,5″-tetramethylbenzidine (TMB) reagent was added for HRP to produce a colorimetric signal. The reaction was stopped by addition of 1M hydrochloric acid after 2 minutes and measured for absorbance (optical density, OD) at 450λ on a Molecular Devices plate reader. The OD values were plotted against antibody concentration and fitted using a using 4-parameter logistic equation in SoftMax software (Molecular Devices). The apparent affinity constant (KD) was taken from the C-parameter of the equation (y=(A−D)/(1+(x/C)̂B)+D). The apparent affinity constants were summarized (in some cases shown as average values) in Table 10 below. Lower value indicates higher binding affinity of the antibody to the antigen.

| Kd [nM] | Binder |
| --- | --- |
| 0.115 | B1 |
| 0.2 | B2 |
| 0.197 | B3 |
| 0.154 | B4 |
| 0.153 | B5 |
| 0.372 | B6 |
| 0.5 | B7 |
| 0.311 | B8 |

Molecular target: T4, DDR1ECD-Fc (R&D Systems, Catalog #2396-DR) (human, UniProt Q08345 21-416)
T4 construct: range 21-416; construct as described for the bought immunogen; also called human ECD-DDR1-Fc; Fc-ECD-DR1; not shown: human IgG1, Pro100-Lys330
Experiment: ELISA, coated antigen, apparent KD
Protocol: as §1

| Kd [nM] | Binder |
| --- | --- |
| 0.254 | B1 |
| 0.209 | B2 |
| 0.234 | B3 |
| 0.31 | B4 |
| 0.216 | B5 |
| 0.324 | B6 |
| 0.596 | B7 |
| 0.256 | B8 |

Molecular target: DDR1 endogenously expressed on human cancer cell lines (T47D, HCT-116, A431) (human) (UniProt Q08345)
Experiment: flow cytometry, HCT116 cells

| MFI [MFI] | Binder |
| --- | --- |
| 2210 | B1 |
| 1690 | B2 |
| 2480 | B3 |
| 1530 | B4 |
| 1410 | B5 |
| 1490 | B6 |
| 1900 | B7 |
| 1060 | B8 |

Molecular target: DDR1 endogenously expressed on human cancer cell lines (T47D, HCT-116, A431) (human) (UniProt Q08345)
Experiment: cell-based or functional assay

| EC50, DDR1 phospho-specific ELISA (T47D) [nM] | NPI of cluster formation at 66 nM (A431 cells) [%] | Maximal inhibition, DDR1 phospho-specific ELISA (T47D) [%] | EC50, cluster formation assay (A431 cells) [nM] | Binder |
| --- | --- | --- | --- | --- |
| 0.34 | 3.6 |  |  | B1 |
| 0.45 | -0.2 |  |  | B2 |
| 0.35 | 15.8 | 100 |  | B3 |
| 0.36 | 3.6 |  |  | B4 |
| 0.42 | 128 | 100 | 2.38 | B5 |
| 0.66 | 113 | 100 |  | B6 |
| 0.64 | 103 | 100 | 6.89 | B7 |

Molecular target: T2, mouse ECD-DDR1-Fc
Experiment: ELISA, coated antigen
Protocol: as §1

| binding result | Binder |
| --- | --- |
| no binding | B1 |
| no binding | B2 |
| no binding | B3 |
| no binding | B4 |
| no binding | B5 |
| no binding | B8 |

Molecular target: DDR1 endogenously expressed on human cancer cell lines (T47D, HCT-116, A431) (human) (UniProt Q08345)
Experiment: cell-based or functional assay
Remark: another data set of the same source

| EC50, DDR1 phospho-specific ELISA (T47D) [nM] | EC50, cluster formation assay (A431 cells) [nM] | Maximal inhibition, DDR1 phospho-specific ELISA (T47D) [%] | NPI of cluster formation at 66 nM (A431 cells) [%] | Binder |
| --- | --- | --- | --- | --- |
| 0.63 | 7.87 | 100 | 119 | B8 |
